Data on 1 molecule can be found in paper PMC12630831.

The target in the assay is T1, PRDX1 (peroxiredoxin 1), endogenous in TM3 cells (mouse (endogenous in TM3)), P35700.
T1 chain: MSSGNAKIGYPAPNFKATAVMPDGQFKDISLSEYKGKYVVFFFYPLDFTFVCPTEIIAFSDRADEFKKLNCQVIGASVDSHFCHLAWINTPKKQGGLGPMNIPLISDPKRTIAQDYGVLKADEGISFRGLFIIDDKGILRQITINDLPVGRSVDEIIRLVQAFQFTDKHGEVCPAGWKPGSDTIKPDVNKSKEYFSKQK
Put plainly: SDS-PAGE under DTT-free conditions with western blot. The conditions noted are these: remark: other sources report otherwise. On the technique in general: In western blotting, separated proteins are transferred to a membrane and probed.

B1: PRDX1 (peroxiredoxin 1), endogenous in TM3 cells, P35700 1-199 (enzyme)
chain: T1 chain
A word on the stoichiometry N: it is a count of units in the complex or per binding partner. In turn, B1 came in with a stoichiometry N of 2.
